In US20260022175A1 (Chugai, published 2026):

Columns and labels:
[1] = molecular target: T1, human C1q protein (Calbiochem) (human, UniProt P02745 23-245; P02746 28-253; P02747 29-245); test: ELISA, antibody on the plate, hC1q 3 µg/mL
T1 construct: bought; also called hC1q

[2] = molecular target: T2, hCTLA4-His-BAP (human CTLA4 extracellular region with C-terminal His-tag and BAP-tag) (human, biotin on the BAP-tag); test: SPR 37C, ATP 100 µM; ATP 100 µM
T2 construct: also called hCTLA4-His-Biotin

[3] = molecular target: T2, hCTLA4-His-BAP (human CTLA4 …); test: SPR 37C, hCTLA4 1000 nM, ATP 10 µM; ATP 10 µM; binding amount at 1000 nM hCTLA4
[4] = molecular target: T2, hCTLA4-His-BAP (human CTLA4 …); test: SPR 37C, ATP 10 µM; ATP 10 µM
[5] = molecular target: T2, hCTLA4-His-BAP (human CTLA4 …); test: SPR 37C, hCTLA4 1000 nM, ATP 1 µM; ATP 1 µM; binding amount at 1000 nM hCTLA4
[6] = molecular target: T2, hCTLA4-His-BAP (human CTLA4 …); test: SPR 37C, hCTLA4 1000 nM, ATP 100 µM; ATP 100 µM; binding amount at 1000 nM hCTLA4
[7] = molecular target: T2, hCTLA4-His-BAP (human CTLA4 …); test: SPR 37C, hCTLA4 1000 nM, no ATP; no ATP; binding amount at 1000 nM hCTLA4

T2 sequence (chain, as listed by the source limits assumed): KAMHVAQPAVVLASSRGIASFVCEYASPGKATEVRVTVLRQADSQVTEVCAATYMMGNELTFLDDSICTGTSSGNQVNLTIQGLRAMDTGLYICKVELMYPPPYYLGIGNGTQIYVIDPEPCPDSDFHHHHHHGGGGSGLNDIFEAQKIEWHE
T1 sequence (P02745 23-245 limits assumed, chain 1 of 3): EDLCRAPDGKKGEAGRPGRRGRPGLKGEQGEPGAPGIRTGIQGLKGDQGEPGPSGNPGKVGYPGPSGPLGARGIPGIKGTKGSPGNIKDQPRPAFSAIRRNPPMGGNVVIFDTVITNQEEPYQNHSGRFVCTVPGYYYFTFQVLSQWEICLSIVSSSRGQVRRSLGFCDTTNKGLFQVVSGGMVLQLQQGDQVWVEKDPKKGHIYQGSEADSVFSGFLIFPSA
T1 sequence (P02746 28-253 limits assumed, chain 2 of 3): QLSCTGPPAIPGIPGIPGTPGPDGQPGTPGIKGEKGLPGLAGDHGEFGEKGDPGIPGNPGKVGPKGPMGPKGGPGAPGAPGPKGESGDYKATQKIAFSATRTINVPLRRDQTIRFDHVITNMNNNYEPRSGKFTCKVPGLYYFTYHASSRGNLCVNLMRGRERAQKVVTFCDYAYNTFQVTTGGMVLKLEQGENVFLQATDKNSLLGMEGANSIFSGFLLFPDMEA
T1 sequence (P02747 29-245 limits assumed, chain 3 of 3): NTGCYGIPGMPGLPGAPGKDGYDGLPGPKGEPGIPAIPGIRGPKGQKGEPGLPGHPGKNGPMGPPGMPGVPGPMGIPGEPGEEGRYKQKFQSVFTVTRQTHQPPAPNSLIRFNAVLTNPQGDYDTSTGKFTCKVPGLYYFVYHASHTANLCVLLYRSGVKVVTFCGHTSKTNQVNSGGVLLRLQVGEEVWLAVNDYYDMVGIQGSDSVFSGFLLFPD

binding result [1] | Kd [2] [nM] | Binding to Human CTLA4 [3] | Kd [4] [nM] | Binding to Human CTLA4 [5] | Binding to Human CTLA4 [6] | Binding to Human CTLA4 [7] | Binder
binds | – | – | – | – | – | – | H240-Kn462/L73-k0//H240-Hl441/L73-k0 (antibody, also called EGL-ART5; ART5; copies: 1 + 1 + 2) heavy 1: QDQLVQSGAEVKKPGASVKVSCKASGFNIKDTYIQWVRQAPGQGLEWMGRIDPLRKQTKYREKFEGRVTITADTSTNTAYMELSSLRSEDTAVYYCVRSGREFDYWGQGTLVTVSSASTKGPSVFPLAPSSKSTSGGTAALGCLVKDYFPEPVTVSWNSGALTSGVHTFPAVLQSSGLYSLSSVVTVPSSSLGTQTYICNVNHKPSNTKVDKKVEPKSCDKTHTCPPCPAPEFQWGPMVFLFPPKPKDVLMISRTPEVTCVVVDVSDEEPEVKFNWYVDGVEVHNAKTKPREEQYNATYRVVSVLPVLHQDWLNGKEYKCKVSNDALPAPIEKTISKAKGQPREPQVCTLPPSRDELTKNQVSLWCLVKGFYPSDIAVEWESNGQPENNYKTTPPVLDSDGSFFLYSKLTVDKSRWQQGNVFSCSVMHEALHNHYTQKSLSLSP heavy 2: QDQLVQSGAEVKKPGASVKVSCKASGFNIKDTYIQWVRQAPGQGLEWMGRIDPLRKQTKYREKFEGRVTITADTSTNTAYMELSSLRSEDTAVYYCVRSGREFDYWGQGTLVTVSSASTKGPSVFPLAPSSKSTSGGTAALGCLVKDYFPEPVTVSWNSGALTSGVHTFPAVLQSSGLYSLSSVVTVPSSSLGTQTYICNVNHKPSNTKVDKKVEPKSCDKTHTCPPCPAPELLAGPSVFLFPPKPKDVLMISRTPEVTCVVVDVSHEEPEVKFNWYVDGVEVHNAKTKPREEQYNATYRVVSVLPVLHQDWLNGKEYKCKVSNDALPAPIEETISKAKGQPREPQVYTLPPSRCELTKNQVSLSCAVKGFYPSDIAVEWESNGQPENNYKTTPPVLDSDGSFFLVSKLTVDKSRWQQGNVFSCSVMHEALHNHYTQKSLSLSP light: DIQMTQSPSSLSASVGDRVTITCRASQDIHKYIAWYQQKPGQAPRLLIQYTSTLQPGVPSRFSGSGSGTDYTFTISSLQPEDIATYYCLQYEQLRTFGGGTKVEIKRTVAAPSVFIFPPSDEQLKSGTASVVCLLNNFYPREAKVQWKVDNALQSGNSQESVTEQDSKDSTYSLSSTLTLSKADYEKHKVYACEVTHQGLSSPVTKSFNRGEC
binds | – | – | – | – | – | – | H240-Kn443/L73-k0//H240-Hl408/L73-k0 (antibody, also called EGL-ART3; ART3; copies: 1 + 1 + 2) heavy 1: QDQLVQSGAEVKKPGASVKVSCKASGFNIKDTYIQWVRQAPGQGLEWMGRIDPLRKQTKYREKFEGRVTITADTSTNTAYMELSSLRSEDTAVYYCVRSGREFDYWGQGTLVTVSSASTKGPSVFPLAPSSKSTSGGTAALGCLVKDYFPEPVTVSWNSGALTSGVHTFPAVLQSSGLYSLSSVVTVPSSSLGTQTYICNVNHKPSNTKVDKKVEPKSCDKTHTCPPCPAPEFQWGPMVFLFPPKPKDTLMISRTPEVTCVVVDVSDEEPEVKFNWYVDGVEVHNAKTKPREEQYNATYRVVSVLTVLHQDWLNGKEYKCKVSNDALPAPIEKTISKAKGQPREPQVCTLPPSRDELTKNQVSLWCLVKGFYPSDIAVEWESNGQPENNYKTTPPVLDSDGSFFLYSKLTVDKSRWQQGNVFSCSVMHEALHNHYTQKSLSLSP heavy 2: QDQLVQSGAEVKKPGASVKVSCKASGFNIKDTYIQWVRQAPGQGLEWMGRIDPLRKQTKYREKFEGRVTITADTSTNTAYMELSSLRSEDTAVYYCVRSGREFDYWGQGTLVTVSSASTKGPSVFPLAPSSKSTSGGTAALGCLVKDYFPEPVTVSWNSGALTSGVHTFPAVLQSSGLYSLSSVVTVPSSSLGTQTYICNVNHKPSNTKVDKKVEPKSCDKTHTCPPCPAPELLAGPSVFLFPPKPKDTLMISRTPEVTCVVVDVSHEEPEVKFNWYVDGVEVHNAKTKPREEQYNATYRVVSVLTVLHQDWLNGKEYKCKVSNDALPAPIEETISKAKGQPREPQVYTLPPSRCELTKNQVSLSCAVKGFYPSDIAVEWESNGQPENNYKTTPPVLDSDGSFFLVSKLTVDKSRWQQGNVFSCSVMHEALHNHYTQKSLSLSP light: DIQMTQSPSSLSASVGDRVTITCRASQDIHKYIAWYQQKPGQAPRLLIQYTSTLQPGVPSRFSGSGSGTDYTFTISSLQPEDIATYYCLQYEQLRTFGGGTKVEIKRTVAAPSVFIFPPSDEQLKSGTASVVCLLNNFYPREAKVQWKVDNALQSGNSQESVTEQDSKDSTYSLSSTLTLSKADYEKHKVYACEVTHQGLSSPVTKSFNRGEC
– | 140 | 0.094 per unit amount of antibody | 730 | 0.023 per unit amount of antibody | 0.172 per unit amount of antibody | 0.006 per unit amount of antibody | 04H1077-G1m/04L1041-lam1 (antibody, human IgG1, lambda, V domains shown) VH: EVQLVESGGDLVKPGGGLRLSCAASGFTFSSRTMNWVRQAPGKGLEWVSSISTRSGYIYYAESVKGRFTISRDNAKNSLYLQMNSLRAEDTAVYYCARYGKREDMLWVFDYWGQGTLVTVSS VL: QSALTQPPSASGSPGQTVTISCDGPSTDVGDYNYVHWYQQHPGKAPKLMIYFTSKKPSGVPDRFSGSKSGNTASLTVSGLQAEDEADYFCSTYAAPLGPMFGGGTKLTVLG
– | 110 | 0.106 per unit amount of antibody | 690 | 0.031 per unit amount of antibody | 0.181 per unit amount of antibody | 0.01 per unit amount of antibody | 04H1077-G1m/04L1086-lam1 (antibody, human IgG1, lambda, V domains shown) VH: EVQLVESGGDLVKPGGGLRLSCAASGFTFSSRTMNWVRQAPGKGLEWVSSISTRSGYIYYAESVKGRFTISRDNAKNSLYLQMNSLRAEDTAVYYCARYGKREDMLWVFDYWGQGTLVTVSS VL: QSALTQPPSASGSPGQTVTISCDGPSTGVGDYNYVHWYQQHPGKAPKLMIYFTSKKPSGVPDRFSGSKSGNTASLTVSGLQAEDEADYFCQTYAAPLGPMFGGGTKLTVLG
– | 76 | 0.131 per unit amount of antibody | 400 | 0.041 per unit amount of antibody | 0.192 per unit amount of antibody | 0.012 per unit amount of antibody | 04H1077-G1m/04L1067-lam1 (antibody, human IgG1, lambda, V domains shown) VH: EVQLVESGGDLVKPGGGLRLSCAASGFTFSSRTMNWVRQAPGKGLEWVSSISTRSGYIYYAESVKGRFTISRDNAKNSLYLQMNSLRAEDTAVYYCARYGKREDMLWVFDYWGQGTLVTVSS VL: QSALTQPPSASGSPGQTVTISCDGPSTGVGDYNYVHWYQQHPGKAPKLMIYFTSKKPSGVPDRFSGSKSGNTASLTVSGLQAEDEADYFCSTYAAPLGPMFGGGTKLTVLG
– | 74 | 0.108 per unit amount of antibody | 450 | 0.03 per unit amount of antibody | 0.17 per unit amount of antibody | 0.005 per unit amount of antibody | 04H1208-G1m/04L1086-lam1 (antibody, human IgG1, lambda, V domains shown) VH: EVQLVESGGGLVKPGGSLRLSCAASGFTFSSKTMNWVRQAPGKGLEWVSSISTRSGYIYYARSVKGRFTISRDNAKNSLYLQMNSLRAEDTAVYYCARYGKREDMLWVFDYWGQGTLVTVSS VL: QSALTQPPSASGSPGQTVTISCDGPSTGVGDYNYVHWYQQHPGKAPKLMIYFTSKKPSGVPDRFSGSKSGNTASLTVSGLQAEDEADYFCQTYAAPLGPMFGGGTKLTVLG
– | 59 | 0.137 per unit amount of antibody | 330 | 0.047 per unit amount of antibody | 0.196 per unit amount of antibody | 0.013 per unit amount of antibody | 04H1207-G1m/04L1086-lam1 (antibody, human IgG1, lambda, V domains shown) VH: EVQLVESGGGLVKPGGSLRLSCAASGFTFSSKTMNWVRQAPGKGLEWVSSISTRSGYIYYAESVKGRFTISRDNAKNSLYLQMNSLRAEDTAVYYCARYGKREDMLWVFDYWGQGTLVTVSS VL: QSALTQPPSASGSPGQTVTISCDGPSTGVGDYNYVHWYQQHPGKAPKLMIYFTSKKPSGVPDRFSGSKSGNTASLTVSGLQAEDEADYFCQTYAAPLGPMFGGGTKLTVLG
